The results in this text go back to paper doi:10.1101/2023.06.06.543969.

Common to all, as to assay: BLI
Background: BLI is a label-free optical method that tracks binding on a fibre tip over time.

Assay [1] deals with His-tagged HIV Env MPER peptide.
Assay [2] deals with biotinylated SARS-CoV-2 fusion peptide.
Assay [3] addresses SARS-CoV-2 spike.
For assay [4], the target named is HCV E2 envelope glycoprotein.
Assay [5] deals with HC84.26.5D Fab VH G50R (human).

For the substance 4E10 Fab (WT) VH:G50R, the ratio to parent in assay [1] is above 100.

With COV44–62 Fab (WT) VH:R50W, the ratio to parent in assay [2] was above 100.

As to COVOX-316 VH:W50R, the ratio to parent in assay [3] was above 100.

Consider HC33.8 VH:S52Y, for which the ratio to parent in assay [4] is above 100.

For HCV1 VH:W52S, the ratio to parent in assay [4] was above 100.

“HCV (isolate H77) E2 domain (domain or fragment)”: the fold change in KD against the wild type in assay [5] came to 6 fold.

Regarding P008_60 VH:S52R, in assay [3], the ratio to parent was above 100.
